Measured values published in paper doi:10.1101/2021.04.12.439405 (bioRxiv, 2021).

Assays:
Experiment in all cases: native MS
[1] = biological target: MukB^N (MukB Neck) (E. coli)
[2] = biological target: MukB^HN (MukB Head-Neck) (E. coli)
native MS = biological target: the molecule itself

Sequence of Acyl Carrier Protein (AcpP), co-purified with MukB proteins (P0A6A8 whole entry): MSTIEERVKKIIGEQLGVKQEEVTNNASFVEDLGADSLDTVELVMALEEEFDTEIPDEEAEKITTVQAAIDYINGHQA

Row | stoichiometry N [1] | stoichiometry N [2] | Molecule | binding result (native MS)
1 | 2 |  | MukB^N (MukB Neck) (domain or fragment) | 
2 | 1 | 1 | Acyl Carrier Protein (AcpP), co-purified with MukB proteins (from UniProt P0A6A8 1-78) (natural protein) | 
3 |  |  | MukB-His (wild type MukB) (natural protein, E. coli, UniProt P22523 1-1486, looked up) MIERGKFRSLTLINWNGFFARTFDLDELVTTLSGGNGAGKSTTMAAFVTALIPDLTLLHFRNTTEAGATSGSRDKGLHGKLKAGVCYSMLDTINSRHQRVVVGVRLQQVAGRDRKVDIKPFAIQGLPMSVQPTQLVTETLNERQARVLPLNELKDKLEAMEGVQFKQFNSITDYHSLMFDLGIIARRLRSASDRSKFYRLIEASLYGGISSAITRSLRDYLLPENSGVRKAFQDMEAALRENRMTLEAIRVTQSDRDLFKHLISEATNYVAADYMRHANERRVHLDKALEFRRELHTSRQQLAAEQYKHVDMARELAEHNGAEGDLEADYQAASDHLNLVQTALRQQEKIERYEADLDELQIRLEEQNEVVAEAIERQQENEARAEAAELEVDELKSQLADYQQALDVQQTRAIQYNQAIAALNRAKELCHLPDLTADCAAEWLETFQAKELEATEKMLSLEQKMSMAQTAHSQFEQAYQLVVAINGPLARNEAWDVARELLREGVDQRHLAEQVQPLRMRLSELEQRLREQQEAERLLADFCKRQGKNFDIDELEALHQELEARIASLSDSVSNAREERMALRQEQEQLQSRIQSLMQRAPVWLAAQNSLNQLSEQCGEEFTSSQDVTEYLQQLLEREREAIVERDEVGARKNAVDEEIERLSQPGGSEDQRLNALAERFGGVLLSEIYDDVSLEDAPYFSALYGPSRHAIVVPDLSQVTEHLEGLTDCPEDLYLIEGDPQSFDDSVFSVDELEKAVVVKIADRQWRYSRFPEVPLFGRAARESRIESLHAEREVLSERFATLSFDVQKTQRLHQAFSRFIGSHLAVAFESDPEAEIRQLNSRRVELERALSNHENDNQQQRIQFEQAKEGVTALNRILPRLNLLADDSLADRVDEIRERLDEAQEAARFVQQFGNQLAKLEPIVSVLQSDPEQFEQLKEDYAYSQQMQRDARQQAFALTEVVQRRAHFSYSDSAEMLSGNSDLNEKLRERLEQAEAERTRAREALRGHAAQLSQYNQVLASLKSSYDTKKELLNDLQRELQDIGVRADSGAEERARIRRDELHAQLSNNRSRRNQLEKALTFCEAEMDNLTRKLRKLERDYFEMREQVVTAKAGWCAVMRMVKDNGVERRLHRRELAYLSADDLRSMSDKALGALRLAVADNEHLRDVLRMSEDPKRPERKIQFFVAVYQHLRERIRQDIIRTDDPVEAIEQMEIELSRLTEELTSREQKLAISSRSVANIIRKTIQREQNRIRMLNQGLQNVSFGQVNSVRLNVNVRETHAMLLDVLSEQHEQHQDLFNSNRLTFSEALAKLYQRLNPQIDMGQRTPQTIGEELLDYRNYLEMEVEVNRGSDGWLRAESGALSTGEAIGTGMSILVMVVQSWEDESRRLRGKDISPCRLLFLDEAARLDARSIATLFELCERLQMQLIIAAPENISPEKGTTYKLVRKVFQNTEHVHVVGLRGFAPQLPETLPGTDEAPSQAS | binds
